What all share (assay): cell_activity
Series [1] has as its system ZFN 20189 (CTLA-4) (synthetic). The conditions noted are these: pair 20190/20189, Cel-I, K562.
In the next series the test system is TALEN 101624 (synthetic). The conditions noted are these: pair 101625/101624, K562.
Another series has as its system TALEN 101620 (synthetic). The conditions noted are these: pair 101623/101620, K562; 10.6 with 101622, 0 with 101621.
Another series deals with TALEN 101618 (synthetic). As to conditions: pair 101621/101618, K562; 14.7 with 101622, 6.8 with 101623.
For series [2], the system named is ZFN 12942 (PD1) (synthetic). The conditions noted are these: pair 12942/25029, Cel-I, K562; also active in PBMC (FIG. 2).
The test system of series [3] is ZFN 20186 (CTLA-4) (synthetic). As to conditions: pair 20186/20185, Cel-I, K562.
The subject of a further series is TALEN 101633 (synthetic). The conditions noted are these: pair 101633/101632, K562.
The next series deals with TALEN 101641 (synthetic). The conditions noted are these: pair 101641/101640, K562; RVD 16 printed ND.
In series [4] the test system is ZFN 20185 (CTLA-4) (synthetic). As to conditions: pair 20186/20185, Cel-I, K562.
For series [5], the system named is ZFN 25029 (PD1) (synthetic). The conditions noted are these: pair 12942/25029, Cel-I, K562; also active in PBMC (FIG. 2).
For another series, the system named is TALEN 101627 (synthetic). As to conditions: pair 101627/101626, K562.
The subject of a further series is TALEN 101632 (synthetic). The conditions noted are these: pair 101633/101632, K562.
The subject of a further series is TALEN 101640 (synthetic). The conditions noted are these: pair 101641/101640, K562.
The subject of another series is TALEN 101626 (synthetic). As to conditions: pair 101627/101626, K562.
Series [6] deals with ZFN 20190 (CTLA-4) (synthetic). As to conditions: pair 20190/20189, Cel-I, K562.
The next series concerns TALEN 101621 (synthetic). As to conditions: pair 101621/101618, K562; 18.1 with 101619, 0 with 101620.

Turning to “TGGCGGTGGGTACATGAGCTCCACCTTG (double strand) [CTLA-4 site 20189]”, the activity in series [1] amounted to 1.8 % indels.
Take “ATGCAGATCCCACAGGCGC (double strand) [PD1 site 101620/101624]”: the activity is 10.1 % NHEJ with TALEN 101624 (synthetic) and 11.6 % NHEJ in the series on TALEN 101620 (synthetic).
Take “GTGCTCCAGGCATGCAGATCC (double strand) [PD1 site 101618]”: the activity in the series on TALEN 101618 (synthetic) worked out at 23.5 % NHEJ.
“CCAGGGCGCCTGTGGGATCTGCATGCCT (double strand) [PD1 site 12942]”: the activity in series [2] stood at 14.7 % NHEJ.
The sequence “ACAGTGCTTCGGCAGGCTGACAGCCAGG (double strand) [CTLA-4 site 20186]” yielded an activity in series [3] of 3.3 % indels.
On to “CTCTCTTTGATCTGCGCCTTG (double strand) [PD1 site 101633/101641]”, for which the values for the activity in the series with TALEN 101633 (synthetic) and with TALEN 101641 (synthetic) were 14.7 % NHEJ and 23 % NHEJ, respectively.
“ACCCGGACCTCAGTGGCTTTGCCTGGAG (double strand) [CTLA-4 site 20185]” had an activity in series [4] of 3.3 % indels.
On to “CAGTCGTCTGGGCGGTGCT (double strand) [PD1 site 25029]”, for which the activity in series [5] is 14.7 % NHEJ.
In the series with TALEN 101627 (synthetic), “GTGAAGGTGGCGTTGTCCCCT (double strand) [PD1 site 101627]” gave an activity of 12.5 % NHEJ.
For the sequence “CTACCTCTGTGGGGCCATCTC (double strand) [PD1 site 101632/101640]”, the activity in the series on TALEN 101632 (synthetic) amounted to 14.7 % NHEJ; in the series with TALEN 101640 (synthetic), 23 % NHEJ.
For “CTTCTCCCCAGCCCTGCTCGT (double strand) [PD1 site 101626]”, the activity in the series with TALEN 101626 (synthetic) came to 12.5 % NHEJ.
In the case of “ACTACCTGGGCATAGGCAACGGAACCCA (double strand) [CTLA-4 site 20190]”, in series [6], the activity worked out at 1.8 % indels.
In the case of “GTAGCACCGCCCAGACGACTG (double strand) [PD1 site 101621]”, in the series on TALEN 101621 (synthetic), the activity is 23.5 % NHEJ.

The record behind these values is US20170183420.
